From article PMC8033513 (2021)

B1: extra‐cellular domain (ECD) of human UNC5H3 (domain or fragment)
chain: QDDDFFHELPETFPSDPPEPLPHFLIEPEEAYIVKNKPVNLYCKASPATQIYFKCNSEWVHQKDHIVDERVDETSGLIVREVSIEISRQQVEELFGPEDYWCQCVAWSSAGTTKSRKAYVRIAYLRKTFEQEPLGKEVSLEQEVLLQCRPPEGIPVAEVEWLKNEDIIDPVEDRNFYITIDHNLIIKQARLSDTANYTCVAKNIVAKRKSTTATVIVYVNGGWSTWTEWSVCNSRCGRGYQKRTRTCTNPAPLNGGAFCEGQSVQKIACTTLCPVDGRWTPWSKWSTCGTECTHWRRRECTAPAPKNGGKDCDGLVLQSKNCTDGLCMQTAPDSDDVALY
B2: extra‐cellular domain (ECD) of mouse DCC (Fc fusion)
chain: HLQVTGFQIKPFTSLHFVSEPSDAVTMRGGNVLLNCSAESDRGVPVIKWKKDGLILALGMDDRKQQLPNGSLLIQNILHSRHHKPDEGLYQCEASLADSGSIISRTAKVTVAGPLRFLSQTESITAFMGDTVLLKCEVIGEPMPTIHWQKNQQDLNPLPGDSRVVVLPSGALQISRLQPGDSGVYRCSARNPASIRTGNEAEVRILSDPGLHRQLYFLQRPSNVIAIEGKDAVLECCVSGYPPPSFTWLRGEEVIQLRSKKYSLLGGSNLLISNVTDDDSGTYTCVVTYKNENISASAELTVLVPPWFLNHPSNLYAYESMDIEFECAVSGKPVPTVNWMKNGDVVIPSDYFQIVGGSNLRILGVVKSDEGFYQCVAENEAGNAQSSAQLIVPKPAIPSSSILPSAPRDVLPVLVSSRFVRLSWRPPAEAKGNIQTFTVFFSREGDNRERALNTTQPGSLQLTVGNLKPEAMYTFRVVAYNEWGPGESSQPIKVATQPELQVPGPVENLHAVSTSPTSILITWEPPAYANGPVQGYRLFCTEVSTGKEQNIEVDGLSYKLEGLKKFTEYTLRFLAYNRYGPGVSTDDITVVTLSDVPSAPPQNISLEVVNSRSIKVSWLPPPSGTQNGFITGYKIRHRKTTRRGEMETLEPNNLWYLFTGLEKGSQYSFQVSAMTVNGTGPPSNWYTAETPENDLDESQVPDQPSSLHVRPQTNCIIMSWTPPLNPNIVVRGYIIGYGVGSPYAETVRVDSKQRYYSIERLESSSHYVISLKAFNNAGEGVPLYESATTRSITDPTDPVDYYPLLDDFPTSGPDVSTPMLPPVGVQAVALTHEAVRVSWADNSVPKNQKTSDVRLYTVRWRTSFSASAKYKSEDTTSLSYTATGLKPNTMYEFSVMVTKNRRSSTWSMTAHATTYEAAPTSAPKDLTVITREGKPRAVIVSWQPPLEANGKITAYILFYTLDKNIPIDDWIMETISGDRLTHQIMDLSLDTMYYFRIQARNVKGVGPLSDPILFRTLKVEHPDKMANDQGRHGDGGYWPVDTNLIDRSTLNEPPIGQMHPPHGSVTPQKNSN
B3: extra‐cellular domain (ECD) of rat UNC5H2 (Fc fusion)
chain: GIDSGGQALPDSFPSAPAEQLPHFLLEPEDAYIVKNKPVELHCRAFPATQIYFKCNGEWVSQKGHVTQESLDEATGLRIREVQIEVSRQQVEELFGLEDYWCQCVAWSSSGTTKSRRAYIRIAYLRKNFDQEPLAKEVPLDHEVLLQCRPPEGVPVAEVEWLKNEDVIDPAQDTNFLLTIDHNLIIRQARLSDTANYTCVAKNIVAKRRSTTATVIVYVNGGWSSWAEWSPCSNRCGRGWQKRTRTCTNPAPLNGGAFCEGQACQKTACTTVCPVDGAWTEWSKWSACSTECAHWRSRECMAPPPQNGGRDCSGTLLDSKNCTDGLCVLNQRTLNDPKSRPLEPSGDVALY
B4: extra‐cellular domain (ECD) of mouse Neogenin (Fc fusion)
chain: RPASGAAATKSGSPPQSAGASVRTFTPFYFLVEPVDTLSVRGSSVILNCSAYSEPSPNIEWKKDGTFLNLESDDRRQLLPDGSLFISNVVHSKHNKPDEGFYQCVATVDNLGTIVSRTAKLTVAGLPRFTSQPEPSSVYVGNSAILNCEVNADLVPFVRWEQNRQPLLLDDRIVKLPSGTLVISNATEGDGGLYRCIVESGGPPKFSDEAELKVLQDPEEIVDLVFLMRPSSMMKVTGQSAVLPCVVSGLPAPVVRWMKNEEVLDTESSGRLVLLAGGCLEISDVTEDDAGTYFCIADNGNKTVEAQAELTVQVPPGFLKQPANIYAHESMDIVFECEVTGKPTPTVKWVKNGDVVIPSDYFKIVKEHNLQVLGLVKSDEGFYQCIAENDVGNAQAGAQLIILEHDVAIPTLPPTSLTSATTDHLAPATTGPLPSAPRDVVASLVSTRFIKLTWRTPASDPHGDNLTYSVFYTKEGVARERVENTSQPGEMQVTIQNLMPATVYIFKVMAQNKHGSGESSAPLRVETQPEVQLPGPAPNIRAYATSPTSITVTWETPLSGNGEIQNYKLYYMEKGTDKEQDIDVSSHSYTINGLKKYTEYSFRVVAYNKHGPGVSTQDVAVRTLSDVPSAAPQNLSLEVRNSKSIVIHWQPPSSTTQNGQITGYKIRYRKASRKSDVTETLVTGTQLSQLIEGLDRGTEYNFRVAALTVNGTGPATDWLSAETFESDLDETRVPEVPSSLHVRPLVTSIVVSWTPPENQNIVVRGYAIGYGIGSPHAQTIKVDYKQRYYTIENLDPSSHYVITLKAFNNVGEGIPLYESAVTRPHTDTSEVDLFVINAPYTPVPDPTPMMPPVGVQASILSHDTIRITWADNSLPKHQKITDSRYYTVRWKTNIPANTKYKNANATTLSYLVTGLKPNTLYEFSVMVTKGRRSSTWSMTAHGATFELVPTSPPKDVTVVSKEGKPRTIIVNWQPPSEANGKITGYIIYYSTDVNAEIHDWVIEPVVGNRLTHQIQELTLDTPYYFKIQARNSKGMGPMSEAVQFRTPKADSSDKMPNDQALGSAGKGSRLPDLGSDYKPPMSGSNSPHGSPTSPLDSNML
B5: extra‐cellular domain (ECD) of human UNC5H1 (domain or fragment)
chain: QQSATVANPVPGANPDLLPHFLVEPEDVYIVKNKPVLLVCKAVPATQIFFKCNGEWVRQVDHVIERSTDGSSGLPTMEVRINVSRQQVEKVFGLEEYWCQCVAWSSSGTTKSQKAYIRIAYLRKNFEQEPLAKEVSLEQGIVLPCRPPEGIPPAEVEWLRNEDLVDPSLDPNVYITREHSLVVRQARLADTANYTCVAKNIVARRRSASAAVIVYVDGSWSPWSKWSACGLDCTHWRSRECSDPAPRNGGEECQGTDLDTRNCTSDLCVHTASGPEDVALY

Legend:
Assay in all cases: BLI
[1] = target: human netrin‐1 (human, UniProt O95631 25-604)
[2] = target: B4
[3] = target: B3
[4] = target: B2
[5] = target: B5
[6] = target: B1

## B1
[1]
  Kd: 5.4 nM

## B2
[1]
  Kd: 6.3 nM

## B3
[1]
  Kd: 6.9 nM

## B4
[1]
  Kd: 7.8 nM

## B5
[1]
  Kd: 12.2 nM

B6: chicken netrin‐2L (netrin‐2‐like) (ligand)
chain: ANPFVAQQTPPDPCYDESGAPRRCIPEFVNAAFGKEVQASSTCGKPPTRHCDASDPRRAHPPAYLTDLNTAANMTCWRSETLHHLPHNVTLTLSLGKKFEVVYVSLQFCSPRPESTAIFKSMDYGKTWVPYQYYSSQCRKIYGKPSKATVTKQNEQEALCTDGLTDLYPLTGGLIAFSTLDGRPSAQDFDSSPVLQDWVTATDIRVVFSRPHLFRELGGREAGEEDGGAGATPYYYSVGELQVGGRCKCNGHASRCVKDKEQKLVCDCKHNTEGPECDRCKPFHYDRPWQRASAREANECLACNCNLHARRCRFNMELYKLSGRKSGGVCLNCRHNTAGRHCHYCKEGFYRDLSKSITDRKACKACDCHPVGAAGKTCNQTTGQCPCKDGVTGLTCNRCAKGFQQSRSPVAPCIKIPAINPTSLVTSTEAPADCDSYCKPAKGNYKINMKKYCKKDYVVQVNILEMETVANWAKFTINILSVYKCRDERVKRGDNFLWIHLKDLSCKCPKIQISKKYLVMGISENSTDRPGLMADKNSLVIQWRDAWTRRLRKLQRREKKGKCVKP
[2]
  Kd: 51.7 nM
[3]
  Kd: 8.8 nM
[4]
  Kd: 31 nM
[5]
  Kd: 106 nM
[6]
  Kd: 4.3 nM
